Data reported in the supplement of paper PMC10567573.

B1: TMEM106C (parent)
chain: SEQLVNFTGKAEMGGPFSYVYFFC

Variants of: B1
Experiment: protein stability index of a GFP-peptide fusion (GPS, HEK-293T) (PSI 1-6); higher = more stable
Settings: c terminus: a fixed tail appended
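Note: lentivirally expressed fusions sorted by FACS into six bins by GFP to DsRed ratio, PSI derived from sequencing read proportions per bin multiplied by bin number.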

Variant | protein stability index
C24Y | 3.05
C24T | 3.96
C24S | 2.23
C24W | 3.35
C24V | 3.49
